Laboratory results from patent US20220363770A1.
Where a chain is given by its changes, count along the chain named. One block for each binder: values may come before it.

Assays:
[1] = molecular target: human PAC1 receptor extracellular domain (ECD) (human) (UniProt P41586); test: yeast-displayed Fab, FACS, 10 nM PAC1 receptor ECD
[2] = molecular target: human CGRP receptor extracellular domain (ECD) (human) (UniProt Q16602); test: yeast-displayed Fab, FACS, 1 nM human CGRP receptor ECD
[3] = molecular target: human CGRP receptor extracellular domain (ECD) (human) (UniProt Q16602); test: yeast-displayed Fab, FACS, 10 nM human CGRP receptor ECD

Chain of human PAC1 receptor extracellular domain (ECD) (human) (P41586 24-153): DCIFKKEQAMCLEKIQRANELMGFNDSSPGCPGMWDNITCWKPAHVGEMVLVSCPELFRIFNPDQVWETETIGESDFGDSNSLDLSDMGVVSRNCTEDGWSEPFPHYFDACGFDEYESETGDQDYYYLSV
Chain of human CGRP receptor extracellular domain (ECD) (human) (Q16602 23-138 limits assumed, chain 1 of 2): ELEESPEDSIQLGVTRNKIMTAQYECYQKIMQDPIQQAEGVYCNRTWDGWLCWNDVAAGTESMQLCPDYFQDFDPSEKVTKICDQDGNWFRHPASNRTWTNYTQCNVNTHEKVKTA
Chain of human CGRP receptor extracellular domain (ECD) (human) (chain, as listed by the source limits assumed, chain 2 of 2): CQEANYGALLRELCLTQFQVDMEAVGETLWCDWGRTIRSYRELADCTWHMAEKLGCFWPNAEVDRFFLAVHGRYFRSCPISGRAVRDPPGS

Mutant vs. 4E4.2 Parent B/D Ratio [1]: 1.8 fold
Normalized Binding Signal/Display Signal (B/D) [1]: 0.2
B1: anti-CGRP receptor variant 05, yeast-displayed Fab (Fab, V domains shown)
VH: QVQLVESGGGVVQPGRSLRLSCAASGFTFSSFGMHWVRQAPGKGLEWVAVISFDGSIKYSVDSVKGRFTISRDNSKNTLFLQMNSLRAEDTAVYYCARDRLNYYESSGYYHYKYYGMAVWGQGTTVTVSS
VL: QSVLTQPPSVSAAPGQKVTISCSGSFSNIGRSTVSWYQQLPGTAPKLLIYDNRWRAGGIPDRFSGSKSGTSATLGITGLQTGDEADYYCGTWDYQWKAVVFGGGTKLTVLG

Mutant vs. 4E4.2 Parent B/D Ratio [1]: 1 fold
Normalized Binding Signal/Display Signal (B/D) [1]: 0.11
Mutant vs. 4E4.2 Parent B/D Ratio [2]: 1 fold
Normalized Binding Signal/Display Signal (B/D) [2]: 0.12
Mutant vs. 4E4.2 Parent B/D Ratio [3]: 1 fold
Normalized Binding Signal/Display Signal (B/D) [3]: 0.15
B2: 4E4.2 parental Fab, yeast-displayed (Fab, V domains shown)
VH: B1 VH
VL: QSVLTQPPSVSAAPGQKVTISCSGSSSNIGNNYVSWYQQLPGTAPKLLIYDNNKRPSGIPDRFSGSKSGTSATLGITGLQTGDEADYYCGTWDSRLSAVVFGGGTKLTVLG

Mutant vs. 4E4.2 Parent B/D Ratio [1]: 1.8 fold
Normalized Binding Signal/Display Signal (B/D) [1]: 0.19
B3: anti-CGRP receptor variant 12, yeast-displayed Fab (Fab, V domains shown)
VH: B1 VH
VL: B1 VL with F26R, S32Y, T33S, W54Y, G57Q, Y94W, Q95A, W96T, K97T, A98S
